Data taken from publication PMC11490885.

Target: hβ3-ICL-del 1D4 (human GABAA receptor β3 subunit, intracellular loop deleted, homomeric receptor) (human)
Assay: native MS; purified β3-ICL-del receptor, buffer exchanged into 200 mM ammonium acetate pH 8, 0.08 mM DMNG; static nanospray, Q-Exactive EMR; unlabeled receptor seen as a single species; pentamer

stoichiometry N: 5
Substance: hβ3-ICL-del 1D4 (human GABAA receptor β3 subunit, intracellular loop deleted, homomeric receptor)
